Measured values taken from patent US20170037111A1, “Novel peptides and combination of peptides for use in immunotherapy against ovarian cancer and other cancers” (immatics biotechnologies GmbH, priority 2015, published 2017).

molecular target: HLA-A*02:01 (Homo sapiens, UniProt P04439, D140Y/D185E/D98H/E176V/E277Q/G131W/G231S/I119V/I121R/I166T/I218V/L300P/L318F/N151K/N90K/P208A/P217A/Q86G/Q94H/R138H/R169H/T345S); test: MHC binding assay (UV-ligand exchange, β2m ELISA, peptide exchange yield); details: MHC class I binding score; binding to HLA-A*02:01 ranged by peptide exchange yield (UV-ligand exchange, β2m ELISA)
Source text: Candidate peptides for T cell based therapies according to the present invention were further tested for their MHC binding capacity (affinity). The individual peptide-MHC complexes were produced by UV-ligand exchange, where a UV-sensitive peptide is cleaved upon UV-irradiation, and exchanged with the peptide of interest as analyzed. Only peptide candidates that can effectively bind and stabilize the peptide-receptive MHC molecules prevent dissociation of the MHC complexes. To determine the yield of the exchange reaction, an ELISA was performed based on the detection of the light chain (β2m) of stabilized MHC complexes. The assay was performed as generally described in Rodenko et al. (Rodenko et al., 2006).
96 well MAXISorp plates (NUNC) were coated over night with 2 ug/ml streptavidin in PBS at room temperature, washed 4× and blocked for 1h at 37° C. in 2% BSA containing blocking buffer. […] Peptide-MHC monomers of the UV-exchange reaction were diluted 100 fold in blocking buffer. Samples were incubated for 1h at 37° C., washed four times, incubated with 2 ug/ml HRP conjugated anti-β2m for 1h at 37° C., washed again and detected with TMB solution that is stopped with […]. Absorption was measured at 450 nm. Candidate peptides that show a high exchange yield (preferably higher than 50%, most preferred higher than 75%) are generally preferred for a generation and production of antibodies or fragments thereof, and/or T cell receptors or fragments thereof, as they show sufficient avidity to the MHC molecules and prevent dissociation of the MHC complexes.

| Substance | Peptide exchange |
| --- | --- |
| 517 (LLMPIPEGLTL; listed as Homo sapiens) [compound 517] | ″+++″ (≧50% = +++) |
| 284 (ILLSQTTGV; listed as Homo sapiens) [compound 284] | ″+++″ (≧50% = +++) |
| 515 (LLQELVLFL; listed as Homo sapiens) [compound 515] | ″+++″ (≧50% = +++) |
| 473 (AMATESILHFA; listed as Homo sapiens) [compound 473] | ″+++″ (≧50% = +++) |
| 138 (YQYPRAILSV; listed as Homo sapiens) [compound 138] | ″+++″ (≧50% = +++) |
| 502 (RLLAQVPGL; listed as Homo sapiens) [compound 502] | ″+++″ (≧50% = +++) |
| 392 (ALLHPQGFEV; listed as Homo sapiens) [compound 392] | ″++″ (≧20% = ++) |
| 497 (GLLEKLTAI; listed as Homo sapiens) [compound 497] | ″+++″ (≧50% = +++) |
| 510 (KLYSVVSQL; listed as Homo sapiens) [compound 510] | ″++″ (≧20% = ++) |
| 32 (KLDDLTQDLTV; listed as Homo sapiens) [compound 32] | ″++″ (≧20% = ++) |
| 350 (ALLDVTHSELTV; listed as Homo sapiens) [compound 350] | ″+++″ (≧50% = +++) |
| 308 (SQYSGQLHEV; listed as Homo sapiens) [compound 308] | ″+++″ (≧50% = +++) |
| 337 (HLLSELEAAPYL; listed as Homo sapiens) [compound 337] | ″++++″ (≧75% = ++++) |
| 341 (SQIALNEKLVNL; listed as Homo sapiens) [compound 341] | ″+++″ (≧50% = +++) |
| 193 (QLLDADGFLNV; listed as Homo sapiens) [compound 193] | ″+++″ (≧50% = +++) |
| 322 (TLMTSLPAL; listed as Homo sapiens) [compound 322] | ″+++″ (≧50% = +++) |
| 556 (FLTDLEDLTL; listed as Homo sapiens) [compound 556] | ″+++″ (≧50% = +++) |
| 62 (VLLDVSAGQLLM; listed as Homo sapiens) [compound 62] | ″++++″ (≧75% = ++++) |
| 367 (SLQNHNHQL; listed as Homo sapiens) [compound 367] | ″+++″ (≧50% = +++) |

| Substance | Peptide exchange |
| --- | --- |
| 330 (QLALKVEGV; listed as Homo sapiens) [compound 330] | ″+++″ (≧50% = +++) |
| 295 (VLDRESPNV; listed as Homo sapiens) [compound 295] | ″+++″ (≧50% = +++) |
| 381 (FIDEAYVEV; listed as Homo sapiens) [compound 381] | ″++″ (≧20% = ++) |
| 235 (YLNDLHEVLL; listed as Homo sapiens) [compound 235] | ″++++″ (≧75% = ++++) |
| 158 (KLFDVDEDGYI; listed as Homo sapiens) [compound 158] | ″+++″ (≧50% = +++) |
| 519 (GLLHLTLLL; listed as Homo sapiens) [compound 519] | ″+++″ (≧50% = +++) |
| 589 (KLYPQLPAEI; listed as Homo sapiens) [compound 589] | ″+++″ (≧50% = +++) |
| 169 (NLPEYLPFV; listed as Homo sapiens) [compound 169] | ″+++″ (≧50% = +++) |
| 221 (ALYEEGLLL; listed as Homo sapiens) [compound 221] | ″++″ (≧20% = ++) |
| 237 (ALLEASGTLLL; listed as Homo sapiens) [compound 237] | ″++++″ (≧75% = ++++) |
| 480 (ALLEDSCHYL; listed as Homo sapiens) [compound 480] | ″+++″ (≧50% = +++) |
| 12 (SLWPDPMEV; listed as Homo sapiens) [compound 12] | ″+++″ (≧50% = +++) |
| 595 (VLLSIYPRV; listed as Homo sapiens) [compound 595] | ″+++″ (≧50% = +++) |
| 525 (VLLEAGEGLVTI; listed as Homo sapiens) [compound 525] | ″+++″ (≧50% = +++) |
| 25 (FLPDEPYIKV; listed as Homo sapiens) [compound 25] | ″+++″ (≧50% = +++) |
| 231 (FLSPQQPPLLL; listed as Homo sapiens) [compound 231] | ″++″ (≧20% = ++) |
| 227 (ALMNTLLYL; listed as Homo sapiens) [compound 227] | ″++″ (≧20% = ++) |
| 209 (KLIESKHEV; listed as Homo sapiens) [compound 209] | ″++″ (≧20% = ++) |

Results, then the substance that gave them:

| Peptide exchange | Substance |
| --- | --- |
| ″+++″ (≧50% = +++) | 549 (AMLENASDIKL; listed as Homo sapiens) [compound 549] |
| ″+++″ (≧50% = +++) | 285 (QLLHVGVTV; listed as Homo sapiens) [compound 285] |
| ″+++″ (≧50% = +++) | 225 (SLLKVLPAL; listed as Homo sapiens) [compound 225] |
| ″++″ (≧20% = ++) | 447 (QLVPALAKV; listed as Homo sapiens) [compound 447] |
| ″+++″ (≧50% = +++) | 486 (AVMESIQGV; listed as Homo sapiens) [compound 486] |
| ″++″ (≧20% = ++) | 154 (ALDDGTPAL; listed as Homo sapiens) [compound 154] |
| ″+++″ (≧50% = +++) | 563 (WLLPYNGVTV; listed as Homo sapiens) [compound 563] |
| ″+++″ (≧50% = +++) | 163 (ALDEMGDLLQL; listed as Homo sapiens) [compound 163] |
| ″+++″ (≧50% = +++) | 181 (LLWAGTAFQV; listed as Homo sapiens) [compound 181] |
| ″+++″ (≧50% = +++) | 70 (GLLDYPVGV; listed as Homo sapiens) [compound 70] |
| ″++″ (≧20% = ++) | 278 (QLLDVVLTI; listed as Homo sapiens) [compound 278] |
| ″+++″ (≧50% = +++) | 309 (GLFDGVPTTA; listed as Homo sapiens) [compound 309] |
| ″+++″ (≧50% = +++) | 386 (ILFRYPLTI; listed as Homo sapiens) [compound 386] |
| ″+++″ (≧50% = +++) | 224 (TLIDAQWVL; listed as Homo sapiens) [compound 224] |
| ″++++″ (≧75% = ++++) | 310 (FLVDTPLARA; listed as Homo sapiens) [compound 310] |
| ″++″ (≧20% = ++) | 64 (YAAPGGLIGV; listed as Homo sapiens) [compound 64] |
| ″++″ (≧20% = ++) | 538 (LLLAHIIAL; listed as Homo sapiens) [compound 538] |

| Peptide exchange | Substance |
| --- | --- |
| ″+++″ (≧50% = +++) | 370 (SLLQDLVSV; listed as Homo sapiens) [compound 370] |
| ″+++″ (≧50% = +++) | 399 (YLFEPLYHV; listed as Homo sapiens) [compound 399] |
| ″+++″ (≧50% = +++) | 302 (ALLQEGEVYSA; listed as Homo sapiens) [compound 302] |
| ″+++″ (≧50% = +++) | 362 (TLYGLSVLL; listed as Homo sapiens) [compound 362] |
| ″++++″ (≧75% = ++++) | 339 (GLWEIENNPTVKA; listed as Homo sapiens) [compound 339] |
| ″++++″ (≧75% = ++++) | 119 (FLYIGDIVSL; listed as Homo sapiens) [compound 119] |
| ″+++″ (≧50% = +++) | 307 (ALPVSLPQI; listed as Homo sapiens) [compound 307] |
| ″++″ (≧20% = ++) | 261 (YVLEFLEEI; listed as Homo sapiens) [compound 261] |
| ″+++″ (≧50% = +++) | 324 (FLYDEIEAEV; listed as Homo sapiens) [compound 324] |
| ″+++″ (≧50% = +++) | 478 (YLLHEKLNL; listed as Homo sapiens) [compound 478] |
| ″++″ (≧20% = ++) | 372 (TMLLNIPLV; listed as Homo sapiens) [compound 372] |
| ″++″ (≧20% = ++) | 140 (YMDAPKAAL; listed as Homo sapiens) [compound 140] |
| ″+++″ (≧50% = +++) | 433 (AMLNEPWAV; listed as Homo sapiens) [compound 433] |
| ″++″ (≧20% = ++) | 403 (KLYDRILRV; listed as Homo sapiens) [compound 403] |
| ″++++″ (≧75% = ++++) | 621 (VLMDRLPSLL; listed as Homo sapiens) [compound 621] |
| ″++″ (≧20% = ++) | 87 (ALPEAPAPLLPHIT; listed as Homo sapiens) [compound 87] |
| ″+++″ (≧50% = +++) | 248 (FLFPNQYVDV; listed as Homo sapiens) [compound 248] |
